# Results as given in ChEMBL document CHEMBL4024756, “Identification of 4-Phenoxyquinoline Based Inhibitors for L1196M Mutant of Anaplastic Lymphoma Kinase by Structure-Based Design” (J Med Chem, 2017).
# B1: ALK tyrosine kinase receptor (Homo sapiens), Q9UM73 L1196M (protein)
# chain: MGAIGLLWLLPLLLSTAAVGSGMGTGQRAGSPAAGPPLQPREPLSYSRLQRKSLAVDFVVPSLFRVYARDLLLPPSSSELKAGRPEARGSLALDCAPLLRLLGPAPGVSWTAGSPAPAEARTLSRVLKGGSVRKLRRAKQLVLELGEEAILEGCVGPPGEAAVGLLQFNLSELFSWWIRQGEGRLRIRLMPEKKASEVGREGRLSAAIRASQPRLLFQIFGTGHSSLESPTNMPSPSPDYFTWNLTWIMKDSFPFLSHRSRYGLECSFDFPCELEYSPPLHDLRNQSWSWRRIPSEEASQMDLLDGPGAERSKEMPRGSFLLLNTSADSKHTILSPWMRSSSEHCTLAVSVHRHLQPSGRYIAQLLPHNEAAREILLMPTPGKHGWTVLQGRIGRPDNPFRVALEYISSGNRSLSAVDFFALKNCSEGTSPGSKMALQSSFTCWNGTVLQLGQACDFHQDCAQGEDESQMCRKLPVGFYCNFEDGFCGWTQGTLSPHTPQWQVRTLKDARFQDHQDHALLLSTTDVPASESATVTSATFPAPIKSSPCELRMSWLIRGVLRGNVSLVLVENKTGKEQGRMVWHVAAYEGLSLWQWMVLPLLDVSDRFWLQMVAWWGQGSRAIVAFDNISISLDCYLTISGEDKILQNTAPKSRNLFERNPNKELKPGENSPRQTPIFDPTVHWLFTTCGASGPHGPTQAQCNNAYQNSNLSVEVGSEGPLKGIQIWKVPATDTYSISGYGAAGGKGGKNTMMRSHGVSVLGIFNLEKDDMLYILVGQQGEDACPSTNQLIQKVCIGENNVIEEEIRVNRSVHEWAGGGGGGGGATYVFKMKDGVPVPLIIAAGGGGRAYGAKTDTFHPERLENNSSVLGLNGNSGAAGGGGGWNDNTSLLWAGKSLQEGATGGHSCPQAMKKWGWETRGGFGGGGGGCSSGGGGGGYIGGNAASNNDPEMDGEDGVSFISPLGILYTPALKVMEGHGEVNIKHYLNCSHCEVDECHMDPESHKVICFCDHGTVLAEDGVSCIVSPTPEPHLPLSLILSVVTSALVAALVLAFSGIMIVYRRKHQELQAMQMELQSPEYKLSKLRTSTIMTDYNPNYCFAGKTSSISDLKEVPRKNITLIRGLGHGAFGEVYEGQVSGMPNDPSPLQVAVKTLPEVCSEQDELDFLMEALIISKFNHQNIVRCIGVSLQSLPRFILMELMAGGDLKSFLRETRPRPSQPSSLAMLDLLHVARDIACGCQYLEENHFIHRDIAARNCLLTCPGPGRVAKIGDFGMARDIYRASYYRKGGCAMLPVKWMPPEAFMEGIFTSKTDTWSFGVLLWEIFSLGYMPYPSKSNQEVLEFVTSGGRMDPPKNCPGPVYRIMTQCWQHQPEDRPNFAIILERIEYCTQDPDVINTALPIEYGPLVEEEEKVPVRPKDPEGVPPLLVSQQAKREEERSPAAPPPLPTTSSGKAAKKPTAAEISVRVPRGPAVEGGHVNMAFSQSNPPSELHKVHGSRNKPTSLWNPTYGSWFTEKPTKKNNPIAKKEPHDRGNLGLEGSCTVPPNVATGRLPGASLLLEPSSLTANMKEVPLFRLRHFPCGNVNYGYQQQGLPLEAATAPGAGHYEDTILKSKNSMNQPGP
# Assays:
# Settings in all cases: Homo sapiens
# [1] = substrate: Cc1ccc(Oc2ccnc3cc(-c4cnn(C5CCNCC5)c4)ccc23)cc1
# [2] = substrate: Cc1ccc(Oc2ccnc3cc(-c4cnn(C5CCNCC5)c4)ccc23)cc1; remark: listed apart in the source
# [3] = substrate: Cc1ccc(Oc2ccnc3cc(-c4cnn(C5CCNCC5)c4)ccc23)cc1; remark: listed apart in the source
# [4] = substrate: Cc1ccc(Oc2ccnc3cc(-c4cnn(C5CCNCC5)c4)ccc23)cc1; remark: listed apart in the source
# [5] = substrate: Cc1ccc(Oc2ccnc3cc(-c4cnn(C5CCNCC5)c4)ccc23)cc1; remark: listed apart in the source
protein,measurement,setting,value
B1,Km,[1],94.6 µM
same,Km,[2],32.6 µM
same,Km,[3],58.8 µM
same,Km,[4],298 µM
same,Km,[5],860 µM
